# Assay results published in the supplement of paper PMC9112550, “Optimization of the antimicrobial peptide Bac7 by deep mutational scanning” (BMC Biology, 2022).
# System: Escherichia coli TOP10
# Assay: shrunken log2 fold change of peptide-encoding DNA abundance (4.5 h post-induction vs induction); higher = less antimicrobial activity (less host growth inhibition)
# Conditions: time post-induction: 4.5 h; library: site-saturation at positions 5, 18, 19, 20
# 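Note: peptides expressed intracellularly from a pBAD plasmid library in pooled LB shake-flask culture, induced with 0.3% L-arabinose, DNA abundance read by NGS, three biological replicates, DESeq2 with apeglm shrinkage.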
row,Sequence,shrunken log2 fold change
1,RRIRGRPPRLPRPRPRPHKEPRP,-0.0695
2,RRIRNRPPRLPRPRPRPPFNPRP,-0.299
3,RRIRTRPPRLPRPRPRPAAYPRP,-0.000154
4,RRIRCRPPRLPRPRPRPITDPRP,-0.442
5,RRIRARPPRLPRPRPRPQQHPRP,0.284
6,RRIRNRPPRLPRPRPRPQREPRP,-0.00141
7,RRIRWRPPRLPRPRPRPRVGPRP,0.563
8,RRIRPRPPRLPRPRPRPWVQPRP,0.0127
9,RRIRFRPPRLPRPRPRPFSLPRP,-0.375
10,RRIRPRPPRLPRPRPRPVFHPRP,-0.178
11,RRIRSRPPRLPRPRPRPTACPRP,0.249
12,RRIRWRPPRLPRPRPRPGVIPRP,0.0325
13,RRIRDRPPRLPRPRPRPEKAPRP,0.236
14,RRIRPRPPRLPRPRPRPVMIPRP,-0.251
15,RRIRKRPPRLPRPRPRPRSPPRP,0.6
16,RRIRVRPPRLPRPRPRPPVHPRP,-0.0509
17,RRIRPRPPRLPRPRPRPQEIPRP,0.017
18,RRIRKRPPRLPRPRPRPLSGPRP,-0.0828
19,RRIRRRPPRLPRPRPRPERLPRP,0.474
20,RRIRERPPRLPRPRPRPGYAPRP,-0.102
21,RRIRWRPPRLPRPRPRPCKHPRP,-0.245
22,RRIRYRPPRLPRPRPRPWKEPRP,-0.0075
23,RRIRTRPPRLPRPRPRPVWTPRP,0.03

row,Sequence,shrunken log2 fold change
1,RRIRNRPPRLPRPRPRPDSSPRP,-0.00145
2,RRIRYRPPRLPRPRPRPFGAPRP,-0.391
3,RRIRARPPRLPRPRPRPHTPPRP,0.152
4,RRIRGRPPRLPRPRPRPFAKPRP,0.479
5,RRIRLRPPRLPRPRPRPANPPRP,-0.0638
6,RRIRSRPPRLPRPRPRPGCEPRP,0.145
7,RRIRFRPPRLPRPRPRPKKWPRP,0.187
8,RRIRFRPPRLPRPRPRPQSLPRP,-0.274
9,RRIRKRPPRLPRPRPRPIQAPRP,-0.000921
10,RRIRGRPPRLPRPRPRPFTAPRP,0.272
11,RRIRIRPPRLPRPRPRPQWGPRP,-0.000367
12,RRIRMRPPRLPRPRPRPPQLPRP,0.279
13,RRIRPRPPRLPRPRPRPCNEPRP,-0.16
14,RRIRFRPPRLPRPRPRPVREPRP,0.269
15,RRIRERPPRLPRPRPRPGHPPRP,0.143
16,RRIRHRPPRLPRPRPRPRPQPRP,0.416
17,RRIRDRPPRLPRPRPRPIVPPRP,-0.142
18,RRIRSRPPRLPRPRPRPDVTPRP,-0.0165
19,RRIRPRPPRLPRPRPRPMGQPRP,0.0687
20,RRIRKRPPRLPRPRPRPIGGPRP,-0.494
21,RRIRYRPPRLPRPRPRPQRAPRP,-0.374
22,RRIRKRPPRLPRPRPRPMYSPRP,-0.11
23,RRIRMRPPRLPRPRPRPIYLPRP,-0.268

row,Sequence,shrunken log2 fold change
1,RRIRHRPPRLPRPRPRPSFLPRP,-0.729
2,RRIRPRPPRLPRPRPRPAHQPRP,0.387
3,RRIRLRPPRLPRPRPRPKYSPRP,-0.622
4,RRIRRRPPRLPRPRPRPQNNPRP,0.198
5,RRIRIRPPRLPRPRPRPWKWPRP,-0.00992
6,RRIRWRPPRLPRPRPRPPMKPRP,0.234
7,RRIRTRPPRLPRPRPRPVHSPRP,-0.0193
8,RRIRPRPPRLPRPRPRPYPLPRP,-0.861
9,RRIRQRPPRLPRPRPRPPLGPRP,0.547
10,RRIRARPPRLPRPRPRPTRSPRP,0.258
11,RRIRSRPPRLPRPRPRPCVDPRP,0.00587
12,RRIRSRPPRLPRPRPRPYMLPRP,-0.981
13,RRIRNRPPRLPRPRPRPGHRPRP,0.00909
14,RRIRDRPPRLPRPRPRPQYHPRP,-0.47
15,RRIRRRPPRLPRPRPRPLHCPRP,0.0886
16,RRIRDRPPRLPRPRPRPIIAPRP,0.0706
17,RRIRWRPPRLPRPRPRPMNKPRP,-0.267
18,RRIRVRPPRLPRPRPRPISCPRP,0.0771
19,RRIRNRPPRLPRPRPRPQTDPRP,-0.19
20,RRIRCRPPRLPRPRPRPVMGPRP,0.111
21,RRIRKRPPRLPRPRPRPHEMPRP,0.0317
22,RRIRDRPPRLPRPRPRPNDYPRP,-0.197
23,RRIRGRPPRLPRPRPRPDNVPRP,-0.011

row,Sequence,shrunken log2 fold change
1,RRIRERPPRLPRPRPRPIFNPRP,-0.663
2,RRIRNRPPRLPRPRPRPRHMPRP,-0.199
3,RRIRGRPPRLPRPRPRPPQCPRP,0.713
4,RRIRGRPPRLPRPRPRPYDFPRP,-0.0968
5,RRIRRRPPRLPRPRPRPHWTPRP,-0.12
6,RRIRSRPPRLPRPRPRPPHKPRP,0.173
7,RRIRWRPPRLPRPRPRPTMTPRP,0.328
8,RRIRARPPRLPRPRPRPSLQPRP,0.193
9,RRIRYRPPRLPRPRPRPGDGPRP,0.0695
10,RRIRQRPPRLPRPRPRPRNNPRP,-0.173
11,RRIRARPPRLPRPRPRPFYWPRP,-0.24
12,RRIRERPPRLPRPRPRPKWTPRP,0.0657
13,RRIRNRPPRLPRPRPRPMDFPRP,-0.12
14,RRIRARPPRLPRPRPRPFKVPRP,0.0346
15,RRIRHRPPRLPRPRPRPKVHPRP,-0.0663
16,RRIRDRPPRLPRPRPRPWDDPRP,-0.249
17,RRIRQRPPRLPRPRPRPADSPRP,-0.00947
18,RRIRNRPPRLPRPRPRPKERPRP,0.0296
19,RRIRRRPPRLPRPRPRPMCGPRP,-0.0233
20,RRIRQRPPRLPRPRPRPACIPRP,-0.165
21,RRIRRRPPRLPRPRPRPNKWPRP,0.0315
22,RRIRLRPPRLPRPRPRPCKTPRP,0.0231
